# Measurements reported in patent US20050009749A1.
# Target: β amyloid (Aβ) 1-40 peptide
# Assay: cell-based or functional assay
# Sequence of β amyloid (Aβ) 1-40 peptide (peptide, as listed by the source): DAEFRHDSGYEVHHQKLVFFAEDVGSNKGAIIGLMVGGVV
Substance,"inhibition of Aβ aggregation, Congo red assay [% inhibition]","inhibition of Aβ aggregation, thioflavin-T fluorescence assay [% inhibition]","protection of SHSY-5Y neuronal cells from Aβ-induced death, MTT assay (% more surviving cells than control)"
AABA protein (β amyloid aggregation blocking activity protein) from Streptomyces sp. KK565,93.2,97,–
AABA protein (β amyloid aggregation blocking activity protein) from Streptomyces sp. KK565 (enzyme),–,–,20
